Source: patent publication US20210070855A1 (NANJING LEGEND BIOTECH, published 2021)
Read-outs that look alike come from different tables or passages of the source.

B1: 108VH4.M4_VL1.M1-hIgG4PE (antibody)
heavy: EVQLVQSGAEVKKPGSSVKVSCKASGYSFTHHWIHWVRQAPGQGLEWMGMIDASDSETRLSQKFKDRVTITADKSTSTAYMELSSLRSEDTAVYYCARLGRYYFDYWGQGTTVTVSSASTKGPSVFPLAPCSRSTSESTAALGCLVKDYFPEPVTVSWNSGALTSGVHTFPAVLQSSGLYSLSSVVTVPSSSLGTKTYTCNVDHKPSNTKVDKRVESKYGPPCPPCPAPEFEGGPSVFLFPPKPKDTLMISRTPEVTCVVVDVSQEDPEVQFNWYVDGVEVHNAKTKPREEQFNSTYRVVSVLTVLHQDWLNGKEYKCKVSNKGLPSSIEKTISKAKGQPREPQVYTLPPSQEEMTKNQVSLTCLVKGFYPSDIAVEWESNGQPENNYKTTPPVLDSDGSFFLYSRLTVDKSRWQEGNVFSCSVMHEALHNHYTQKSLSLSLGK
light: EIVLTQSPATLSLSPGERATLSCRASENVGTYISWYQQKPGQAPRLLIYGASNRYTGIPARFSGSGSGTDFTLTISSLEPEDFAVYYCGESYGHLYTFGGGTKVEIKRTVAAPSVFIFPPSDEQLKSGTASVVCLLNNFYPREAKVQWKVDNALQSGNSQESVTEQDSKDSTYSLSSTLTLSKADYEKHKVYACEVTHQGLSSPVTKSFNRGEC
notes: also called 108VH4.M4_VL1.M1-hlgG4PE; 108VH4.M4_VL1.M1-hIgG4PE-Ka
B2: B6H12 (antibody, V domains shown)
VH: EVQLVESGGDLVKPGGSLKLSCAASGFTFSGYGMSWVRQTPDKRLEWVATITSGGTYTYYPDSVKGRFTISRDNAKNTLYLQIDSLKSEDTAIYFCARSLAGNAMDYWGQGTSVTVSS
VL: DIVMTQSPATLSVTPGDRVSLSCRASQTISDYLHWYQQKSHESPRLLIKFASQSISGIPSRFSGSGSGSDFTLSINSVEPEDVGVYYCQNGHGFPRTFGGGTKLEIK
B3: 98E2E12 (antibody, V domains shown)
VH: QVQLQQSGPQLVRPGASVKISCKASGYSFTNHWMHWMKQRPGQGLEWIGMIDPSDSETRLNQQFKDKATLTVDKSSSTAYMQLSSPTSEDSAVFYCARLGRYYFDYWGQGTTLTVSS
VL: NIVMTQSPKSMSVSVGERVTLSCRASDIVGTYVSWYQQKPEQSPKLLIYGASNRYTGVPDRFTGSRSATDFSLTISNVQAEDLADYLCGQSYDSPYTFGGGTKLEIK
notes: purified murine anti-CD47 hybridoma antibody; same VH and VL as 98E2E7; also called 04-98E2E12
B4: 108C10A6_Chimeric hIgG1 (antibody, V domains shown)
VH: QMQLQQSGPQLVRPGASVKISCKTSGYSFTHHWIHWMKQRPGQGLEWIGMIDPSDSETRLSQKFKDKATLTVDASSSTAYMQLNSPTSEDSALYFCARLGRYYFDYWGQGTTLTVSS
VL: NIVMTQSPRSMSMSVGERVTLSCKASENVGTYISWYQQKPDQSPKLLIYGASNRYTGVPDRFTGSGSGTDFTLTISTVQAEDLADYHCGESYGHLYTFGGGTKLEIKR
notes: also called CD47-108C10A6_Chimeric huIgG1; chimeric 108C10A6
B5: 107F11F10 (antibody, V domains shown)
VH: EVQLQQSGAEFVKPGASVKLSCTASGFNIEDTYMHWVKQRPEQGLEWIGMIDPANGKTKYGPRFQDKATVTADTSSNTANLQLSSLTSEDTAVYYCADGIGYYVGAMDYWGQGTSVTVSS
VL: DIQMNQSPSSLSASLGDTITITCHASQNINVWLSWYQQKPGNIPKLLIYKASNLHTGVPSRFSGSGSGTGFTLTISSLQPEDIATYYCQQGHSYPYTFGGGTKLEIK
notes: purified murine anti-CD47 hybridoma antibody; same VH and VL as 107F11B11 and 107F11C4

Tests used:
human CD47 on cells [1] = target: T1, human CD47 on cells (human, UniProt Q08722 19-323); assay: flow cytometry on red blood cells; unit taken from the axis
T1 construct: also called CHO-K1/huCD47; human CD47 over-expressed in CHO-K1 cells

human CD47 on cells [2] = target: T1, human CD47 on cells; assay: flow cytometry on CHO-K1/huCD47 cells; unit taken from the axis
Protocol: (§1) Binding to cell-expressed human CD47 was evaluated on human CD47 over-expressing CHO cells (GenScript, Cat #M00581). Anti-CD47 antibody dilution series was prepared in FACS buffer. CHO-K1/human CD47 cells were transferred to a 96-well U-bottom plate and anti-CD47 antibody dilution was added. […] The cells were then washed twice with wash buffer. Cells were analyzed for binding by FACSCalibur (BD Bioscience, San Jose, Calif.) and Flowjo software.

[3] = target: T2, cynomolgus monkey CD47 on CHO-K1 cells (cynomolgus monkey, UniProt A0A5F8AK49 19-323 (rhesus entry)); assay: flow cytometry on CHO-K1/cynoCD47 cells; unit taken from the axis
T2 construct: whole, on cells; also called CHO-K1/cyno CD47; CHO-K1/cynoCD47
Protocol: (§2) Briefly, binding to cell-expressed cyno CD47 was evaluated on cynomolgus monkey CD47 over-expressing CHO cells. Anti-CD47 antibody dilution series was prepared in FACS buffer. CHO-K1/cynomolgus monkey CD47 cell were transferred to a 96-well U-bottom plate and add CD47 antibody dilution. After 30 minutes incubation at 4° C., cells were washed twice with FACS buffer. […] The cells were washed twice with wash buffer, and then analyzed for binding by using FACSCalibur (BD Bioscience, San Jose, Calif.) and Flowjo software.

human CD47-His protein = target: T3, human CD47-His protein (human, UniProt Q08722 19-139, limits assumed); assay: SPR (Biacore T200), antibody captured, human CD47-His as analyte, 1:1 model
T3 construct: It includes the signal peptide and the membrane-spanning region, which a soluble protein would lack; not shown: His tag

human CD47 on cells [4] = target: T1, human CD47 on cells; assay: flow cytometry, blocking of human SIRPα binding to CHO-K1/huCD47 cells
[5] = target: T2, cynomolgus monkey CD47 on CHO-K1 cells; assay: flow cytometry on CHO-K1/cyno CD47 cells; unit taken from the axis
Protocol: as §2

[6] = target: T2, cynomolgus monkey CD47 on CHO-K1 cells; assay: as above; remark: listed apart in the source
Protocol: as §2

human CD47 on cells [7] = target: T1, human CD47 on cells; assay: flow cytometry on CHO-K1/huCD47 cells (FL2-H channel); unit taken from the axis
human CD47 on cells [8] = target: T1, human CD47 on cells; assay: flow cytometry, blocking of human SIRPα binding to CHO-K1/huCD47 cells; B6H12 is the positive control
human CD47 on cells [9] = target: T1, human CD47 on cells; assay: flow cytometry, blocking of human SIRPα binding to CHO-K1/huCD47 cells; the box on the sheet is labelled EC50; unit taken from the axis
[10] = target: T2, cynomolgus monkey CD47 on CHO-K1 cells; assay: flow cytometry on CHO-K1/cyno CD47 cells
Protocol: as §2

human CD47 on cells [11] = target: T1, human CD47 on cells; assay: flow cytometry on human red blood cells; unit taken from the axis
human CD47 on cells [12] = target: T1, human CD47 on cells; assay: flow cytometry on CHO-K1/huCD47 cells; x axis Log(nM), unit taken from the axis
Protocol: as §1

CD47 protein = target: T4, CD47 protein; assay: ELISA on CD47 protein; x axis is log10 of mAb (ng/ml), unit taken from the axis
T4 construct: also called CD47 (ELISA antigen); not shown: The carrier of the coated recombinant protein (an Fc tag as in CD47-Fc, or a His tag as in CD47-His)

human CD47 on cells [13] = target: T1, human CD47 on cells; assay: flow cytometry, blocking of human SIRPα binding to CHO-K1/huCD47 cells; the box on the sheet is labelled EC50; unit taken from the axis; remark: listed apart in the source
Protocol: After 30 minutes incubation at 4° C., cells were washed twice with FACS buffer.

human CD47 on cells [14] = target: T1, human CD47 on cells; assay: flow cytometry on red blood cells
human CD47 on cells [15] = target: T1, human CD47 on cells; assay: flow cytometry on human red blood cells

Binder	EC50 (human CD47 on cells [1]) [nM]	EC50 (human CD47 on cells [2]) [nM]	EC50 [3] [nM]	EC50 [5] [nM]	EC50 [6] [nM]	IC50 (human CD47 on cells [9]) [nM]	IC50 (human CD47 on cells [13]) [nM]	also measured
B1	3.18	0.586	0.477	–	–	–	–	Kd (human CD47-His protein): 1.5 nM; koff (human CD47-His protein): 0.00046 s⁻¹; kon (human CD47-His protein): 310000 M⁻¹ s⁻¹; IC50 (read off the curve) (human CD47 on cells [4]): ~1 nM
B2	7.74	–	–	13.3	13.3	5.4	–	EC50 (human CD47 on cells [7]): 2.31 nM; IC50 (read off the curve) (human CD47 on cells [8]): ~6 nM
B3	–	–	–	–	–	–	3.74	EC50 (read off the curve) [10]: ~2 nM; EC50 (human CD47 on cells [11]): 9.63 ng/mL; EC50 (human CD47 on cells [12]): 8.21 nM; EC50 (CD47 protein): 2.59 ng/mL
B4	–	0.551	0.491	–	–	1.42	–	EC50 (read off the curve) (human CD47 on cells [14]): ~3 nM
B5	–	–	–	0.931	0.931	–	1.08	EC50 (read off the curve) (human CD47 on cells [15]): ~10 ng/mL
